In assay [1] the target is T1, peptide on HLA-A*02:01 (human).
T1 peptide: SLLMWITQC
As to the kind of experiment: activation reporter or marker.

In assay [2] the target is HLA-A2/PRAME (425-433) on HLA-A2*01 HEK293T cells pulsed with PRAME 425-433 peptide (human). Description: cell-based or functional assay.
The target in assay [3] is T2, PRAME peptide on HLA-A*02:01 (human).
T2 peptide: SLLQHLIGL
As to the kind of experiment: multimer staining.

The target of assay [4] is T3, soluble HLA:A2:PRAME (425-433) tetramer (human).
T3 construct: Commercial tetramer (MBL International); construct limits, biotin tag and streptavidin/fluorophore not described; also called PRAME/HLA tetramer reagent; PRAME (425-433)/HLA-A2
Description: flow cytometry, soluble pMHC tetramer on CHO cells expressing the TCR.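 Note: CHO cells transfected with vectors encoding full-length paired TCR alpha and beta chains, stained with PRAME/HLA tetramer and read by flow cytometry, each value reflects one listed TCR.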 On the technique in general: Flow cytometry measures light scatter and fluorescence of single cells or particles in a stream.

B1: PN42365 (TCR, V domains shown)
V domain 1: TQLLEQSPQFLSIQEGENLTVYCNSSSVFSSLQWYRQEPGEGPVLLVTVVTGGEVKKLKRLTFQFGDARKDSSLHITAAQPGDTGLYLCAANGGSQGNLIFGKGTKLSVKP
V domain 2: DAGVTQSPTHLIKTRGQQVTLRCSPKSGHDTVSWYQQALGQGPQFIFQYYEEEERQRGNFPDRFSGHQFPNYSSELNVNALLLGDSALYLCASSLQDYGYTFGSGTRLTVV
Turning to B1, the binding result in assay [1] was “no recognition”; in assay [3] it was “recognises”. In assay [2], the “EC50 (µM) of peptide, AP1 luciferase reporter in Jurkat cells expressing the TCR” value was found to be 0.0159 µM. Moreover, the “Cell Frequency ≥1000 MFI, ≥1% (% tetramer positive cells in the Ag+ gate)” value in assay [4] worked out at 95.8%.

B2: PN42378 (TCR, V domains shown)
V domain 1: DAKTTQPNSMESNEEEPVHLPCNHSTISGTDYIHWYRQLPSQGPEYVIHGLTSNVNNRMASLAIAEDRKSSTLILHRSTLRDAAVYYCILRPDSWGKFQFGAGTQVVVTP
V domain 2: DAGVTQSPTHLIKTRGQQVTLRCSPKSGHDTVSWYQQALGQGPQFIFQYYEEEERQRGNFPDRFSGHQFPNYSSELNVNALLLGDSALYLCASSLQDYGYTFGSGTRLTVV
notes: stained with anti-mouse TCR constant region antibody H57-597) and full-length chains were expressed on CHO cells
As for B2, the binding result in assay [3] is “recognises”. Also, in assay [4], the “Cell Frequency ≥1000 MFI, ≥1% (% tetramer positive cells in the Ag+ gate)” value is 77.5%.

B3: PN42483 (TCR, V domains shown)
V domain 1: TQLLEQSPQFLSIQEGENLTVYCNSSSVFSSLQWYRQEPGEGPVLLVTVVTGGEVKKLKRLTFQFGDARKDSSLHITAAQPGDTGLYLCAGDGGSQGNLIFGKGTKLSVKP
V domain 2: EAQVTQSPRYLITVTGKKLTVTCSQNMNHEYMSWYRQDPGLGLRQIYYSMNVEVTDKGDVPEGYKVSRKEKRNFPLILESPSPNQTSLYFCASSLGGADEKLFFGSGTQLSVL
Turning to B3, the binding result in assay [1] is given as “no recognition”. In addition, the “Cell Frequency ≥1000 MFI, ≥1% (% tetramer positive cells in the Ag+ gate)” value in assay [4] amounted to 86.4%.

B4: PN42879 (TCR, V domains shown)
V domain 1: TQLLEQSPQFLSIQEGENLTVYCNSSSVFSSLQWYRQEPGEGPVLLVTVVTGGEVKKLKRLTFQFGDARKDSSLHITAAQPGDTGLYLCAGEDFGNEKLTFGTGTRLTIIP
V domain 2: DAGVTQSPTHLIKTRGQQVTLRCSPKSGHDTVSWYQQALGQGPQFIFQYYEEEERQRGNFPDRFSGHQFPNYSSELNVNALLLGDSALYLCASSWADYGYTFGSGTRLTVV
For the molecule B4, in assay [1], the binding result is “no recognition”. The “Cell Frequency ≥1000 MFI, ≥1% (% tetramer positive cells in the Ag+ gate)” value in assay [4] came out at 93.1%.

B5: PN42776 (TCR, V domains shown)
V domain 1: DAKTTQPNSMESNEEEPVHLPCNHSTISGTDYIHWYRQLPSQGPEYVIHGLTSNVNNRMASLAIAEDRKSSTLILHRSTLRDAAVYYCILRPDSWGKFQFGAGTQVVVTP
V domain 2: DAGVTQSPTHLIKTRGQQVTLRCSPKSGHDTVSWYQQALGQGPQFIFQYYEEEERQRGNFPDRFSGHQFPNYSSELNVNALLLGDSALYLCASSWTDYGYTFGSGTRLTVV
notes: as for B2
As to B5, the binding result in assay [3] is listed as “recognises”. Besides, the “Cell Frequency ≥1000 MFI, ≥1% (% tetramer positive cells in the Ag+ gate)” value in assay [4] was 60.2%.

B6: PN42455 (TCR, V domains shown)
V domain 1: DAKTTQPNSMESNEEEPVHLPCNHSTISGTDYIHWYRQLPSQGPEYVIHGLTSNVNNRMASLAIAEDRKSSTLILHRSTLRDAAVYYCILRPDSWGKFQFGAGTQVVVTP
V domain 2: DAGVTQSPTHLIKTRGQQVTLRCSPKSGHDTVSWYQQALGQGPQFIFQYYEEEERQRGNFPDRFSGHQFPNYSSELNVNALLLGDSALYLCASSLVDYGYTFGSGTRLTVV
notes: as for B2
For B6, the binding result in assay [3] was “recognises”. For the same molecule, in assay [4], the “Cell Frequency ≥1000 MFI, ≥1% (% tetramer positive cells in the Ag+ gate)” value was 53%.

B7: PN42750 (TCR, V domains shown)
V domain 1: DAKTTQPNSMESNEEEPVHLPCNHSTISGTDYIHWYRQLPSQGPEYVIHGLTSNVNNRMASLAIAEDRKSSTLILHRSTLRDAAVYYCILRPDSWGKFQFGAGTQVVVTP
V domain 2: DVKVTQSSRYLVKRTGEKVFLECVQDMDHENMFWYRQDPGLGLRLIYFSYDVKMKEKGDIPEGYSVSREKKERFSLILESASTNQTSMYLCASSTVRQGNYGYTFGSGTRLTVV
notes: as for B2
As for B7, the binding result in assay [3] is “recognises”. In addition, in assay [4], the “Cell Frequency ≥1000 MFI, ≥1% (% tetramer positive cells in the Ag+ gate)” value was 40.8%.

B8: PN42476 (TCR)
TCR alpha: DAKTTQPNSMESNEEEPVHLPCNHSTISGTDYIHWYRQLPSQGPEYVIHGLTSNVNNRMASLAIAEDRKSSTLILHRSTLRDAAVYYCILRPDSWGKFQFGAGTQVVVTP
TCR beta: EAQVTQSPRYLITVTGKKLTVTCSQNMDHEYMSWYRQDPGLGLRQIYYSMNVEVTDKGDVPEGYKVPRKEKRSFPLILESPCCSQTPLYLCASSLGGVDERLSFGSGTQLSVL
notes: as for B2
In the case of B8, the binding result in assay [3] is “recognises”. Moreover, in assay [4], the “Cell Frequency ≥1000 MFI, ≥1% (% tetramer positive cells in the Ag+ gate)” value amounted to 54.2%.

B9: PN42610 (TCR, V domains shown)
V domain 1: QKEVEQNSGPLSVPEGAIASLNCTYSDRGSQSFFWYRQYSGKSPELIMSIYSNGDKEDGRFTAQLNKASQYVSLLIRDSQPSDSATYLCAGNYGQNFVFGPGTRLSVLP
V domain 2: AAGVIQSPRHLIKEKRETATLKCYPIPRHDTVYWYQQGPGQDPQFLISFYEKMQSDKGSIPDRFSAQQFSDYHSELNMSSLELGDSALYFCASSIGLNQPQHFGDGTRLSIL
B9: in assay [1], the binding result is on record as “no recognition”. Further, the “Cell Frequency ≥1000 MFI, ≥1% (% tetramer positive cells in the Ag+ gate)” value in assay [4] came to 6.08%.

B10: PN42654 (TCR, V domains shown)
V domain 1: DAKTTQPNSMESNEEEPVHLPCNHSTISGTDYIHWYRQLPSQGPEYVIHGLTSNVNNRMASLAIAEDRKSSTLILHRATLRDAAVYYCILRDGIGNQFYFGTGTSLTVIP
V domain 2: EAQVTQNPRYLITVTGKKLTVTCSQNMNHEYMSWYRQDPGLGLRQIYYSMNVEVTDKGDVPEGYKVSRKEKRNFPLILESPSPNQTSLYFCASSLWTGGGYTFGSGTRLTVV
Regarding B10, in assay [1], the binding result is “no recognition”. Besides, the “Cell Frequency ≥1000 MFI, ≥1% (% tetramer positive cells in the Ag+ gate)” value in assay [4] worked out at 20.1%.

B11: PN42683 (TCR, V domains shown)
V domain 1: DAKTTQPNSMESNEEEPVHLPCNHSTISGTDYIHWYRQLPSQGPEYVIHGLTSNVNNRMASLAIAEDRKSSTLILHRATLRDAAVYYCILRDREYGNKLVFGAGTILRVKS
V domain 2: EAQVTQNPRYLITVTGKKLTVTCSQNMNHEYMSWYRQDPGLGLRQIYYSMNVEVTDKGDVPEGYKVSRKEKRNFPLILESPSPNQTSLYFCASSLWTGGGYTFGSGTRLTVV
On to B11, for which the binding result in assay [1] is recorded as “no recognition”. For the same molecule, the “Cell Frequency ≥1000 MFI, ≥1% (% tetramer positive cells in the Ag+ gate)” value in assay [4] was 11.1%.

B12: PN42655 (TCR, V domains shown)
V domain 1: DAKTTQPNSMESNEEEPVHLPCNHSTISGTDYIHWYRQLPSQGPEYVIHGLTSNVNNRMASLAIAEDRKSSTLILHRSTLRDAAVYYCILRPDSWGKFQFGAGTQVVVTP
V domain 2: EAQVTQNPRYLITVTGKKLTVTCSQNMNHEYMSWYRQDPGLGLRQIYYSMNVEVTDKGDVPEGYKVSRKEKRNFPLILESPSPNQTSLYFCASSLWTGGGYTFGSGTRLTVV
notes: as for B2
Take B12: the values for the binding result in assay [1] and in assay [3] were “no recognition” and “recognises”, respectively. In assay [4], the “Cell Frequency ≥1000 MFI, ≥1% (% tetramer positive cells in the Ag+ gate)” value was determined as 27%.

B13: PN42677 (TCR, V domains shown)
V domain 1: DAKTTQPNSMESNEEEPVHLPCNHSTISGTDYIHWYRQLPSQGPEYVIHGLTSNVNNRMASLAIAEDRKSSTLILHRATLRDAAVYYCILRDGTGNQFYFGTGTSLTVIP
V domain 2: EAQVTQNPRYLITVTGKKLTVTCSQNMNHEYMSWYRQDPGLGLRQIYYSMNVEVTDKGDVPEGYKVSRKEKRNFPLILESPSPNQTSLYFCASSSTGYYGYTFGSGTRLTVV
Turning to B13, in assay [1], the binding result was “no recognition”. Further, the “Cell Frequency ≥1000 MFI, ≥1% (% tetramer positive cells in the Ag+ gate)” value in assay [4] stood at 25.3%.
